Results on nine molecules are retold here after patent US20210163624A1 (Memorial Sloan Kettering, published 2021).

Assay [1] has as its target T1, Biotinylated single chain WT1 peptide/HLA-A0201 complex (recombinant, refolded) (human, biotinylated (site not stated)).
T1 construct: also called WT1/A2; HLA-A0201/WT1 peptide complex
The assay is described as follows: kinetic binding analysis, sensorgram in nm against time (sec) with fit; column ka [1/Ms].

The target in assay [2] is T1, Biotinylated single chain WT1 …. The assay is described as follows: kinetic binding analysis, sensorgram in nm against time (sec) with fit; column kd [1/s]; Error in kd 2.25E-5.
The target is the same in assay [3]. The experiment in a line: kinetic binding analysis, sensorgram in nm against time (sec) with fit; column kD [M].
Assay [4] addresses T2, HLA-A0201 molecule on T2 cells alone (no peptide pulsed) (human).
T2 construct: No exogenous peptide; It is also the MHC partner in the T2 stabilization assay; also called T2 alone; HLA-A2 molecule
The experiment in a line: flow cytometry, live T2 cells without peptide (0 µg/ml group). In general terms: A flow cytometer gives signals particle by particle.

In assay [5] the target is T3, RHAMM-R3 peptide/HLA-A0201 complex on T2 cells (human).
T3 construct: also called RHAMM-3; R3/HLAA0201
The experiment in a line: flow cytometry, live T2 cells pulsed with graded RHAMM-R3 peptide.

Assay [6] concerns the target T4, WT1-A1 heteroclitic peptide (tyrosine at position 1 of RMF)/HLA-A0201 complex on T2 cells (human). The experiment in a line: flow cytometry, live T2 cells pulsed with graded WT1-A1 peptide.
The target in assay [7] is T1, Biotinylated single chain WT1 …. The experiment in a line: kinetic binding analysis, sensorgram in nm against time (sec) with fit; column kd [1/s]; Error in kd 1.12E-4.
Assay [8] deals with T3, RHAMM-R3 peptide/HLA-A0201 complex on …. The assay is described as follows: phage ELISA on the recombinant R3/HLA-A0201 complex (R3), not on cells. On the technique in general: In an ELISA, binding on a coated surface is turned into a signal by an enzyme label.
Assay [9] concerns the target T2, HLA-A0201 molecule on T2 cells alone …. The assay is described as follows: flow cytometry, scFv phage on T2 cells without peptide.
The target of assay [10] is T5, RMF peptide (…)/HLA-A0201 complex on the cell surface (human).
T5 construct: Either on T2 cells pulsed with the synthetic peptide, or naturally processed and presented on WT1+ HLA-A0201+ tumour cells; The assay field of each row says which; also called WT1p/A2 complex; WT1/A2
The assay is described as follows: flow cytometry, scFv phage on T2 cells pulsed with WT1A peptide; scFv phage on T2 cells pulsed with WT1-A (RMF) peptide, 50 µg/ml.

Assay [11] addresses T4, WT1-A1 heteroclitic peptide (tyrosine …). The assay is described as follows: flow cytometry, T2 cells pulsed with WT1-A1 peptide.
For assay [12], the target named is T3, RHAMM-R3 peptide/HLA-A0201 complex on …. The assay is described as follows: flow cytometry, T2 cells pulsed overnight with graded RHAMM-R3 peptide.
In assay [13] the target is WT1A1-B peptide (…)/HLA-A0201 complex on T2 cells (human). The experiment in a line: flow cytometry, T2 cells pulsed with WT1-A1-B peptide.
Assay [14] concerns the target T6, EW peptide/HLA-A0201 complex on T2 cells (human).
T6 construct: also called Ewing sarcoma-derived peptide
The experiment in a line: flow cytometry on T2 cells pulsed with EW peptide.

Assay [15] has as its target T5, RMF peptide (…)/HLA-A0201 complex on …. The experiment in a line: radioimmunoassay with 125-I-labeled WT1 ab1 on JMN cells, Scatchard analysis (bivalent IgG1, avidity).
For assay [16], the target named is T2, HLA-A0201 molecule on T2 cells alone …. The assay is described as follows: flow cytometry, T2 cells without peptide (0 µg/ml point).
Assay [17] addresses T3, RHAMM-R3 peptide/HLA-A0201 complex on …. The assay is described as follows: flow cytometry, scFv phage on T2 cells pulsed with RHAMM-3 peptide.
Assay [18] deals with T2, HLA-A0201 molecule on T2 cells alone …. The experiment in a line: T2 stabilization assay, HLA-A2 detected with mAb BB7.
In assay [19] the target is T5, RMF peptide (…)/HLA-A0201 complex on …. The experiment in a line: flow cytometry, scFv phage on T2 cells pulsed with WT1A peptide.

B1: mAb 15 (mAb clone 15) (antibody, V domains shown)
VH: QVQLVQSGAEVKKPGESLKISCKGSGYNFSNKWIGWVRQLPGRGLEWIAIIYPGYSDITYSPSFQGRVTISADTSINTAYLHWHSLKASDTAMYYCVRHTALAGFDYWGLGTLVTVSS
VL: DIQMTQSPSTLSASVGDRVTITCRASQNINKWLAWYQQRPGKAPQLLIYKASSLESGVPSRFSGSGSGTEYTLTISSLQPDDFATYYCQQYNSYATFGQGTKVEIKR
notes: The legends call it mAb 15 or clone 15; also called Ext002 #15
A word on the kon: it is a measure of how fast the partners come together. One may read the koff as a measure of how fast the partners let go of each other. As for B1, the kon in assay [1] was 245000 M⁻¹ s⁻¹. Besides, the koff in [2] is 0.00188 s⁻¹. Also, the Kd in [3] was 7.68 nM.

B2: mAb 5 (mAb clone 5) (antibody, V domains shown)
VH: QVQLQQSGPGLVKPSQTLSLTCAISGDSVSSNSAAWNWIRQSPSRGLEWLGRTYYGSKWYNDYAVSVKSRITINPDTSKNQFSLQLNSVTPEDTAVYYCARGRLGDAFDIWGQGTMVTVSS
VL: not shown
notes: The legends call it mAb 5 or mAb clone 5; also called Ext002 #5
Regarding B2, the binding result is “no binding (tested: mAb concentration not on the sheet)” in assay [4], “no binding” in assay [5] and “no binding” in assay [6]. In addition, the kon in assay [1] stood at 468000 M⁻¹ s⁻¹. In addition, the koff in [7] was found to be 0.00548 s⁻¹. For the same molecule, the Kd in assay [3] came to 11.7 nM.

B3: scFv phage clone 23 (scFv)
scFv: QSVLTQPPSVSGAPGQRVTISCTGSSSNIGAGYDVHWYQQLPGTAPKLLIYGNSNRPSGVPDRFSGSKSGTSASLAISGLQSEDEADYYCAAWDDSLNGYVFGTGTKLTVLGSRGGGGSGGGGSGGGGSLEMAEVQLVETGGGLLQPGGSLRLSCAASGFSVSGTYMGWVRQAPGKGLEWVALLYSGGGTYHPASLQGRFIVSRDSSKNMVYLQMNSLKAEDTAVYYCAKGGAGGGHFDSWGQGTLVTVSS
notes: also called Ext002 #23; EXT002-23
As for B3, the binding result in assay [8] is reported as “no binding”; in [9], “no binding”; in assay [10], “binds”.

B4: WT1 ab1, full-length human IgG1 (antibody, V domains shown)
VH: QMQLVQSGAEVKEPGESLRISCKGSGYSFTNFWISWVRQMPGKGLEWMGRVDPGYSYSTYSPSFQGHVTISADKSTSTAYLQWNSLKASDTAMYYCARVQYSGYYDWFDPWGQGTLVTVSS
VL: not shown
notes: No single sentence says that WT1 ab1 is clone #13; also called Mab WT1 ab1; ESK1
As for B4, the binding result in assay [11] is reported as “no binding (tested: mAb concentration not on the sheet)”; in assay [12] it was “no binding (tested: mAb 1 µg/ml; peptide 50 µg/ml)”; in assay [13], “no binding (tested: mAb concentration not on the sheet)”; in assay [14], “no binding”; in assay [16], “no binding (tested: mAb 1 µg/ml)”. In [15], the Kd is around 0.2 nM.

B5: scFv phage clone 18 (scFv)
scFv: QSVVTQPPSVSVAPGKTARITCGRNNIGSKSVHWYQQKPGQAPVLVVYDDSDRPSGIPERFSGSNSGNTATLTISRVEAGDEADYYCQVWDSSSDHVVFGGGTKLTVLGSRGGGGSGGGGSGGSLEMAEVQLVQSGGGVVRPGGSLRLSCAASGFTFDDYGMSWVRQAPGKGLEWVSGINWNGGSTGYADSVRGRFTISRDNAKNSLYLQMNSLRAEDTALYYCARERGYGYHDPHDYWGQGTLVTVSS
notes: also called Ext002 #18
On to B5, for which the binding result in assay [9] is “no binding”; in assay [10], “binds”; in [17], “no binding”.

For the molecule AMFPNAPYL [WT1A1-B peptide (AMFPNAPYL)], the binding result in assay [18] is “binds”.

For the molecule YMFPNAPYL [WT1-A1 heteroclitic peptide (tyrosine at position 1 of RMF)], the binding result in assay [18] is reported as “binds”.

B6: scFv phage clone 3 (scFv)
scFv: QTVVTQPPSASGTPGQRVTISCSGSSSNIGSNYVYWYQQLPGTAPKLLIYRSNQRPSGVPDRFSGSKSGTSASLAISGPRSVDEADYYCAAWDDSLNGVVFGGGTKLTVLGSRGGGGSGGGGSGGGSLEMAQVQLVQSGAEVKKPGSSVKVSCKASGGTFSSYAISWVRQAPGQGLEWMGGIIPIFGTANYAQKFQGRVTITADESTSTAYMELSSLRSEDTAVYYCARRIPPYYGMDVWGQGTTVTVSS
notes: also called Ext002 #3; EXT002-3
For the molecule B6, the binding result in assay [19] was “binds”; in assay [9] it was “no binding”; in assay [17], “no binding”.

B7: scFv phage clone 15 (scFv)
scFv: DIQMTQSPSTLSASVGDRVTITCRASQNINKWLAWYQQRPGKAPQLLIYKASSLESGVPSRFSGSGSGTEYTLTISSLQPDDFATYYCQQYNSYATFGQGTKVEIKRSRGGGGSGGGGSGGGGSLEMAQVQLVQSGAEVKKPGESLKISCKGSGYNFSNKWIGWVRQLPGRGLEWIAIIYPGYSDITYSPSFQGRVTISADTSINTAYLHWHSLKASDTAMYYCVRHTALAGFDYWGLGTLVTVSS
notes: also called Ext002 #15
Regarding B7, the binding result in [9] is reported as “no binding”; in assay [10], “binds”.
